Measured values published in patent US20220293215A1.
Like-named read-outs stand apart in the source and are kept apart here.

T1: I-A^b (MHCII) of murine bone marrow-derived dendritic cells from C57BL/6J mice (mouse), P14434
T1 chain 1: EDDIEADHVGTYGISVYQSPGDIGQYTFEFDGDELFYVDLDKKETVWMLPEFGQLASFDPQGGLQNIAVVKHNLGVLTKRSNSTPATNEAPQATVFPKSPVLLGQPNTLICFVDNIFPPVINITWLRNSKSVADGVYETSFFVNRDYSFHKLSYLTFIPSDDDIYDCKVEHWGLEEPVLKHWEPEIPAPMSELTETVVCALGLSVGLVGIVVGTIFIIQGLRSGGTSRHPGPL
T1 chain 2: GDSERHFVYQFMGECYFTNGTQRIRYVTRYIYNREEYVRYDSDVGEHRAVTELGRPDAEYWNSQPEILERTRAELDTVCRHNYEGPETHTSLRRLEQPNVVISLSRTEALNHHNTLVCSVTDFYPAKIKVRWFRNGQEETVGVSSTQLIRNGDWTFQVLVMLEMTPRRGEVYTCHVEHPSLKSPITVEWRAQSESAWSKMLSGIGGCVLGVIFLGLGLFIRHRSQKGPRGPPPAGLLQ


Experiments:
[1] = target: T1, I-A^b (MHCII) of murine bone …; conditions: scale: log2 fold change, Listeria 6 hr versus 10 min
[2] = target: T1, I-A^b (MHCII) of murine bone …; assay: MHCII peptidomics: Y3P IP of peptide-MHCII from BMDCs exposed to live Listeria, iTRAQ LC-MS/MS; conditions: scale: log2 fold change, Listeria 6 hr versus 10 min

| Binder | logFC [1] | logFC [2] |
| --- | --- | --- |
| ESVYLSAQKENPRLFAKIETF (modifications not checked) [Listeria peptide …n… (lmo1574 (dnaE))] | 0.595 | – |
| VERWNEKYAQAYPNVS (modifications not checked) | – | 0.285 |
| ERWNEKYAQAYPNVS (modifications not checked) | – | 0.207 |
| WNEKYAQAYPNVS (modifications not checked) | – | 1.38 |
| WNEKYAQAYPNVSAKI (modifications not checked) | – | 1.2 |
